Where two headings read alike, the source gives them in different places.
What was measured:
[1] = target: T1, HMCES SRAP domain (SRAPd) WT (Homo sapiens, UniProt Q96FZ2 2-270); assay: fluorescence polarization
T1 sequence: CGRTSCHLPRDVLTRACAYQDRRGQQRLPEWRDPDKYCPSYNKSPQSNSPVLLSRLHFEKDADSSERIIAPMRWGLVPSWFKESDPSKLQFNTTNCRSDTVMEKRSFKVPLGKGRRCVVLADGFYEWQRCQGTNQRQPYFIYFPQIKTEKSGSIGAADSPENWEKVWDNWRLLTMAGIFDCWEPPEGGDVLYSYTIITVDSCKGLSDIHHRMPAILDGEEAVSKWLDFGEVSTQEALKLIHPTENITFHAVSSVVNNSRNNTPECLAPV

[2] = target: T1, HMCES SRAP domain (SRAPd) WT; assay: crystal structure
[3] = target: T1, HMCES SRAP domain (SRAPd) WT; assay: crystal structure; remark: listed apart in the source

B1: 3-nt gap DNA (dsDNA)
DNA 1: TCTTCTGGTCCGGATGGTAGTTAAGTGTTGAC
DNA 2: GGACCAGAAGA
DNA 3: GTCAACACTTAACTACCA
For B1, the binding signal [1] was ~7 fold higher affinity than dsDNA of same sequence.

B2: DNA_6nt (3' overhang) (dsDNA)
DNA 1: CCAGACGTTGTT
DNA 2: GTCTTG
B2: binds [2].

B3: DNA_3nt (3' overhang) (dsDNA)
DNA 1: CCAGACGTT
DNA 2: GTCTTG
B3: binds [3].
